Results on 13 molecules are retold here after article PMC10206803, “Structural insights into DNA recognition by the BEN domain of the transcription factor BANP”.

In general, Kd refers to the equilibrium constant for the complex coming apart.

To fix the notation:
T1: BANP BEN domain (human, UniProt Q8N9N5 208-347)
T1 sequence: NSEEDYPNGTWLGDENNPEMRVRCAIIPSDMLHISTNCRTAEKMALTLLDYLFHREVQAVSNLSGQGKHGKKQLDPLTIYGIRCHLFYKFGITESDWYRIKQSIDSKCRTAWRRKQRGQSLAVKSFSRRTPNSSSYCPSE

T2: BEND6 BEN domain (human, UniProt Q5SZJ8 170-271)
T2 sequence: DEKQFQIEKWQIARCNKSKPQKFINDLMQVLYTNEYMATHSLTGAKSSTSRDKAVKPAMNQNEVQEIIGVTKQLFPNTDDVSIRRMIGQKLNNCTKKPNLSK

B1: TCTCG to TCGCG (dsDNA)
DNA 1: GCAAATCGCGTA
DNA 2: TACGCGATTTGC
B2: CTCacgcgAGAG (dsDNA)
DNA 1: CTCACGCGAGAG
DNA 2: CTCTCGCGTGAG
B3: AAA to ggg (dsDNA)
DNA 1: GCGGGTCTCGTA
DNA 2: TACGAGACCCGC
B4: TCTCG to caaca (dsDNA)
DNA 1: GCAAACAACATA
DNA 2: TATGTTGTTTGC
B5: PBM motif DNA AAATCTCG (dsDNA)
DNA 1: GCAAATCTCGTA
DNA 2: TACGAGATTTGC
B6: AAA to cag (dsDNA)
DNA 1: GCCAGTCTCGTA
DNA 2: TACGAGACTGGC
B7: CTCtggcgAGAG (dsDNA)
DNA 1: CTCTGGCGAGAG
DNA 2: CTCTCGCCAGAG
B8: CTCgagcgAGAG (dsDNA)
DNA 1: CTCGAGCGAGAG
DNA 2: CTCTCGCTCGAG
B9: AAA and TCTCG both mutated (dsDNA)
DNA 1: GCCAGCAACATA
DNA 2: TATGTTGCTGGC
B10: CGCG DNA (dsDNA)
DNA 1: CTCTCGCGAGAG
DNA 2: CTCTCGCGAGAG
B11: CGmCG DNA (dsDNA)
DNA 1: CTCTCGCGAGAG
DNA 2: CTCTCGCGAGAG
modifications: 5-methylcytosine at C7 of both strands
B12: FAM methylated CGCG DNA (dsDNA)
DNA 1: CTCTCGCGAGAG
DNA 2: CTCTCGCGAGAG
modifications: 5-methylcytosine, position not given
B13: FAM-CGCG DNA (dsDNA)
DNA 1: CTCTCGCGAGAG
DNA 2: CTCTCGCGAGAG

The first data set has as its target T1, BANP BEN domain. Briefly: ITC; ITC: 150 mM NaCl, 20 mM Tris-HCl pH 7.5, with or without DTT, 25 C, 50-90 uM protein in cell, 1 mM DNA in syringe; FP: 20 mM Tris-HCl pH 7.5, 150 mM NaCl, 1 mM. Particulars: protein: recombinant; tags: His6-SUMO removed by TEV; blunt.
On to B1, for which the Kd amounted to 1.5 ± 0.2 µM.
The same measure, in the same setting: under B2 stands 14.3 ± 2.6 µM; under B3, 4.3 ± 0.3 µM.
As to B4, the Kd was found to be 5.4 ± 0.4 µM.
As to B5, the Kd worked out at 1 ± 0.1 µM.
Same read-out and setting: for B6 the value was 2.9 ± 0.3 µM.
As for B7, the Kd is 14.8 ± 2.3 µM.
Consider B8, for which the Kd came to 14.1 ± 3 µM.
As for B9, the Kd is 15.1 ± 1.9 µM.

Staying with this data set, now noted: protein: recombinant; tags: His6-SUMO removed by TEV; blunt, self-complementary.
In the case of B10, the Kd was found to be 8.4 ± 0.7 µM.
In the case of B11, the Kd came out at 7.6 ± 0.3 µM.

A further data set concerns the target T2, BEND6 BEN domain. Briefly: fluorescence polarization; ITC: 150 mM NaCl, 20 mM Tris-HCl pH 7.5, with or without DTT, 25 C, 50-90 uM protein in cell, 1 mM DNA in syringe; FP: 20 mM Tris-HCl pH 7.5, 150 mM NaCl, 1 mM. Particulars: protein: recombinant; tags: His6 (pET28-MHL) removed by TEV; label: 5' FAM.
For the molecule B12, the Kd was approximately 39 µM.

Staying with this data set, now noted: protein: recombinant; tags: His6 (pET28-MHL) removed by TEV; label: 5' FAM; blunt, self-complementary.
In the case of B13, the Kd is approximately 33 µM.
